± gives the standard deviation of the averaged measurements.
Key:
[1] = melting temperature (DSF); higher = more thermostable
How it was run: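 On a Bio-Rad CFX96, fluorescence of 45 μL enzyme (0 to 0.3 mg/mL) mixed with 5 μL 5X Sypro Orange in sealed PCR plates was followed from 25 °C through 250 cycles of 0.3 °C, with a 0.3 °C/s ramp. The enzymes had been expressed in E. coli C41(DE3), taken up on nickel beads and released by SUMO protease. Melting temperature, measured by differential scanning fluorimetry, is the value given.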

[2] = purified protein yield per well (BCA); higher = higher soluble expression
How it was run: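 Purified protein yield per well is reported, as measured by the Pierce Rapid Gold BCA kit. The enzymes came from E. coli C41(DE3) autoinduction cultures of 2 mL with 100 µg/mL kanamycin, held at 37 °C for 2 h and 18 °C for 40 h, then lysed and purified on Ni-charged magnetic beads with SUMO protease release. The detection threshold is 25 ug (0.1 mg/mL), and lower values are under it.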

[3] = PET hydrolysis, aromatic products released after 48 h (umol product/mg enzyme); higher = more PET depolymerization activity
How it was run: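 Tagless, SUMO-cleaved candidate enzymes were purified on nickel beads, and 5 μg (50 μL) was added to 3.5 mg amorphous PET film or crystalline PET powder in 450 μL buffer. Buffers were 50 mM NaCitrate (pH 4.5, 5.5), 50 mM NaPhosphate (pH 6.5, 7.5) or glycine (pH 8.5). Sealed plates were incubated 48 h at 40 or 60 °C without shaking. PET hydrolysis activity is the aromatic product in the supernatant, read by absorbance at 260 and 280 nm against buffer blanks and expressed per mg enzyme.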

[4] = substrate: cryPow, 40 °C, pH 4.5
[5] = substrate: cryPow, 40 °C, pH 5.5
[6] = substrate: cryPow, 40 °C, pH 6.5
[7] = substrate: cryPow, 40 °C, pH 7.5
[8] = substrate: cryPow, 60 °C, pH 4.5
[9] = substrate: cryPow, 60 °C, pH 5.5
[10] = substrate: cryPow, 60 °C, pH 6.5
[11] = substrate: cryPow, 60 °C, pH 7.5
[12] = substrate: aFilm, 40 °C, pH 4.5
[13] = substrate: aFilm, 40 °C, pH 5.5
[14] = substrate: aFilm, 40 °C, pH 6.5
[15] = substrate: aFilm, 40 °C, pH 7.5
[16] = substrate: aFilm, 60 °C, pH 4.5
[17] = substrate: aFilm, 60 °C, pH 5.5
[18] = substrate: aFilm, 60 °C, pH 6.5
[19] = substrate: aFilm, 60 °C, pH 7.5

Sequence	melting temperature [1] [C]	purified protein yield per well [2] [µg]	PET hydrolysis [3, 4]	PET hydrolysis [3, 5]	PET hydrolysis [3, 6]	PET hydrolysis [3, 7]	PET hydrolysis [3, 8]	PET hydrolysis [3, 9]	PET hydrolysis [3, 10]	PET hydrolysis [3, 11]	PET hydrolysis [3, 12]	PET hydrolysis [3, 13]	PET hydrolysis [3, 14]	PET hydrolysis [3, 15]	PET hydrolysis [3, 16]	PET hydrolysis [3, 17]	PET hydrolysis [3, 18]	PET hydrolysis [3, 19]
ADNPYQRGPDPTRTSVTAVNGPFANTSVSVPTGYGFNGGRIYYPTDTSQGTFGAIAISPGYTALFSAELAWMGPWLASHGFVVIGIETNSRNDFDTARGTQLLAALDYLTQQSPVRDRVDPTRLAVAGHSMGGGGALSAAIRRSSLKAVVGIAPYSPSSNLANDRVPTMIFSGQADTVVTPSYATGLYNSLPSTTESVYLEVAGADHGFMVGRSNPVMVRTMLPFVKMFVDNDARYSQFLCPLLDNSGVVTYRSTCPLLPSTPTTPTPTPTDPTTPTPTPTVPPGSASQIVGTQSGRCIDVPNASRTNGTRVQLYDCNRQTNQAWTYTSGKQLQVYGNMCLDAAGTGNGAAVQIYSCHSQTNQQWNVNSNGTISNVQSGRCLDVWSTANGAQIQLYDCHSQTNQQFRVTPLA [ESM062]	62.5	135	11	27	33	24	< 3	4	4	< 3								
ADNPYQRGPDPTRTSVTAVNGPFANTSVSVPTGYGFNGGRIYYPTDTSQGTFGAIAISPGYTALFSAELAWMGPWLASHGFVVIGIETNSRNDFDTARGTQLLAALDYLTQQSPVRDRVDPTRLAVAGHSMGGGGALSAATRRSSLKAAVGIAPYSPSSNLANDRVPTMVFAGQADTVVTPSYATGLYNSLPATTESAYLEVAGADHGFMVGRSNPVLVRTMLPFVKMFVDNDARYSQFLCPLLDSSGVVTYRSTCPLLPSTPTTPTATPTNTPTPTASPTVPPTSASQIVGTQSGRCVDVPNASRTNGTRVTLYDCNRQINQTWTYTANKQLQVYGTMCLDAAGTGNGAAVQIYNCHGQTNQQWNVNSNGTISSVQSGRCLDVWSTSNGAQIQLYDCHGQPNQQFRLVSLA [ESM135]	61.3	109	6	15	14	5	< 3	< 3	< 3	< 3								
ADNPYQRGPDPTTASVAATRGTFATAEQTVGGGNGFAAGKIYYPIDTSQGTFGAIAIVPGYTATWAAEGAWMGPWLASFGFVVIGIDTNSRNDYDTARGTQLLAALDYLTQRSPVSGRVDAKRLSVMGHSMGGGGAVYAAIHRPSLWAAVGLAPFSPSQNLTTDKVPALLLAGQNDGTVSPSSVQSLYNGIPAGVEKGYLELAGAGHGFPTSSNSVMMRRVIPWLKIFVDHDSRYSKFLCPSLADSTGISGYRSTCPLDVPGGGDPGPGDQAVSLVGAGSGKCIDVPNQSQANGTALVVWTCNGGTNQRWTPTSAGELRVYNGTKCMDAGSGQPGTAVTINACGGGNSQKWTVNATGTITNAQAGACLDVSGGGTADNTPVIVWNCTGAANQVWTRQM [ESM103]	51.7	48.2	< 3	< 3	< 3	< 3												
ADNPYQRGPDPTVASVAATNGPFATAQLNVPSGNGFNGGTIYYPTDTSLGTWGAVAIVPGYTARFANEEAWMGPRLASFGFVVIGVETNSTTDWDTARGTQLLAALDYLTQKSSVRDRVDASRLAVIGHSMGGGGVVYAASQRPSLKAAIGLAPYAPSGNLSNVKVPMLIQGGQNDTVVTPSYLDGLYPTLPSSTPGAYVQYSGADHLFWTKANNIELRTQIPWLKIFLDNDTRYTQFMCPTLKDTASVAKYSAKCSLIPSAGSTTAPTTQPATSAPATTSPTTQPPSQPG [TEP083]	64.3	356	< 3	3 ± 4.2	< 3	< 3	< 3	< 3	< 3	< 3	< 3	< 3	< 3	< 3	< 3	< 3	< 3	< 3
ADNPYQRGPDPTVASVAATRGTFATAQLTVPAGNGFGGGYIYYPTDTSRGTYGAVAIVPGYSALFANEEAWMGPWLASFGFVVIGVETITRNDGADARATQLLAALDYLTQRSQVRDRVDATRLAVMGHSAGGAGTILASERRPSLKAAVGLAPGTPGSLSLATNHVPMMIIGGQTDPTVTPSYLNNLYATMPAATPSDFVQIAGADHLFFTRANNTEMKVLIPWLKIFLDNDTRYTQFLCPSLADPQGISLYRSKCPYLPPGTTSPSPSASSTLSPSPSVSPTASPSPSVSLTPSPSNPATGCAATYRTVNSWPGGFQGEVTVSAGGAPVDGWTVGWTLGSGQSITQLWNGTLTTSGSTVTVRNPAYGGSIPAGGSVVFGFLGTGTPSVPALTCTSP [ESM031]	47.8	66.9	< 3	< 3	< 3	< 3	< 3	< 3	< 3	< 3								
ADNPYQRGPEPTTSSVAATRGTFATAEVSVSKGNGFGGGKIYYPTDTSKGTFGAIAVVPGYTATWAAEGAWMGPWLASFGFVVIGIDTNSRTDYDTARGTQLLAALDYLTQKSSVRSRVDVKRLSVMGHSMGGGGAMYAALHRPSLWAAVGNAPFSPSQNLKSDRVPTLLLAGQKDTTVTPSSVVGLYNGIPAATEKGYLELTGAAHNFPTRSNSVMMRKVVPWLKIFVDHDTRYGQFLCPSLKDTTGITSYRSTCPLTTAGQ [ESM078]	52	68.8	< 3	< 3	< 3	< 3	< 3	< 3	< 3	< 3								
ADNPYQRGPNPTAASIAATTGPFAIASVSVARGNGFGGGVIYYPTDTSQGTFGAIAISPGLNGTWPGIAWLGPRLASQGFVVFGIETNNLNDSPTSRGTQLLAALDYLTQRSSVRTRVDATRLAVAGHSMGGGGALDAALRRPSLQAAIGNAPYLPSGNLSTDRVPTLIYAMQNDTLVPPSRLTTMYNTIPATTERGYIQITGAGHNYIGQPSTNLARTMIPWFKIFIDNDTRFSQFLCPLSNMSGISQYRNSCPLI [ESM159]	57.4	371	< 3	15.5 ± 6.4	46.5 ± 3.5	74.5 ± 7.8	< 3	< 3	6.5 ± 2.1	13 ± 1.4	< 3	< 3	< 3	2 ± 2.8	< 3	< 3	< 3	< 3
